Results from the DeepSol protein solubility set.

Test: soluble on expression in E. coli; label from the status in PepcDB or PDB records

Sequence	soluble on expression in E. coli
MGSDKIHHHHHHMIEVTQGSSPLVLGLPHTGTDVPAEVAQHLNDRGQALADTDWHIHDLYAGLVEGVTTVRTPIHRYVIDVNRDPEGVSLYPGQNTTTLVPLTDFDGHPIWQQEPDAAETAHRLETYHVPYHAALEAEMKRVAGLHGFAILYDCHSIRGDIPFLFEGRLPDFNVGTNLGATCAPSIEDMVFQRCQRAEGYTSVLNGRFKGGWTTRHYGRPDQGWHAIQMELAQATYCDEQPPWRYDPVRADRLRGHLTQILTDLTEWRPA	not soluble
MGSDKIHHHHHHMIIDLSQLPEPEVIENLDFETIYQELLGDFREAMAGEWTAEVESDPVLKLLQLAAYRELLLRARINDAARAVMLAYASGADLDQIGAGFNVQRLLIRPAQPEAVPPVEAQYESDKSLRNRIQLAFEQLSVAGPRNAYIAHALGADGRVADASATSPAPCEVLISVLGVEGNGQAPEAVLQAVRLALNAEDVRPVADRVTVRSAGIVPYQVKAQLYLFPGPEAELIRAAAEASLRDYISAQRRLGRDIRRSALFATLHVEGVQRVELQEPAADVVLDETQAAYCTGYAITLGGVDE	not soluble
MGSDKIHHHHHHMIIKTSFLIVIHAQYAKKVVGKKISIYFTIHSGIKIFVKMKTCARISCFLILAVCSFFDAAAQGNFLLWEITGNGLADTSYLFGTIHIRDKRVFNLGDSTYYAITHTKALYGELNLQDKSEMKQHAPELLMPSGTSLQAMLSAQDYKLVKKYCKKHIGVYALLINKIKPIYISAVVSEDLLKKEEKKPLDLYLQDYAARQGNEIGGIETFQEQLSVIDLLPLQEQADMLVEQIKNIDQEKILMEQMLQFYLNESLDSLEILVQEDTLSQEFNEAILDARNKVMLTRMETQMNREPTFFAVGAAHLAGEKGLVILLRKAGYTVRPVKRK	not soluble
MGSDKIHHHHHHMIILDNHFHVDPINGLFLEAVKQFHRAGGTHLVVVYKSAHDYGFGGMKGEDFMRAMDFHVELVEIINKETPVKAYAVVGVHPAEFDYLARARGIEYAKREVMKALEHAQRLCLDGKAIGIGEVGRPHYPVPEEIWEASIEIMKYAMALAKEADCAVQLHTESFDEEKFRELGRYVREVGIKPYRVVKHFSPPLVKVAEEVGIFPSIIASRKNIEEAIKQGTRFLMETDYIDDKRRPGAVLGPKTVPRRTKELLQKGILTEDDVYRIHVENPEKVYGIEL	not soluble
MGSDKIHHHHHHMIILDRNSYDLLSYLIKLEEPETVMSISKVLNQSRRKVYYHLDKINEALPSEIPKIISYPRIGILLSSQQKAACRTLLADLDDYSYVMSIQERMLLSITYIAIAKDRVTIEKLMQINAVSRNTILNDLNELRQRLSFEPYSIKLQATKSKGYYLDCHPLSKIQYLNKLLHTIYTDSNPNFIAMMRDKLRDFADLSSYFSDDISSFIRGELQVSQALLGKKINSQDIRFMVATLPYQLLSYQNLGLSEREQRDLLSEFSPIKERKEYEIARHLNENLKREFHIELDEIETSLIAVLLLSYRKDRDMHLESHDYDDMRRVLSYFIDAFELDYHVCFKHKQLLLNQLLTHCKALLFRKAYGIVSNNPLTDQIKDKYADLFAMTKVCLSILENAWSIKMNDDDIAYITIHIGGELVHSETKPTPPAVLTLVCDEGIGVQKLFMQQCKQYLPHSKIEAVLTSEQFYSVADIMAVDLVISTNDSLDTQLPTLFVHSILRDDDAIKLIRFAKQRGQTGQDDFDKKLETYIRHYVKNDSDCYVLKTKIEGLINEELLYDNNKR	not soluble
MGSDKIHHHHHHMIISWNTTNKCNMHCEHCYRDSGKGAEGELSTTEGKKLIDEIAKAGFKIMIFSGGEPLLRDDIYELIGYASKIGLRCVIGSNGTLITLEAAQKLKKAGVMRAGISLDSLKAKKHDSFRNYSGAWENTIIGIENLKKAGISFQINTTVMKWNKDEVKDITDFGANLGASAHHVFFLVPTGRGAELQEQILSKNDYENLIKEIMLKQAHANIEIKPTCAPQFVRIAEQNNIKTRFKKGCLAGIKYCIISPTGNVQPCAYLNFSAGNVKQKSFGEIWRESPILKKLRTMEYGEKCGTCKYKNKCGGCRARAAFYNNGDIMASDTWCIYNEYEENKING	not soluble
MGSDKIHHHHHHMIKAMYSGVSGMKANQTKLDVIGNNVANAGTTSFKKSSARITDSFYQTVLYASAPTAALGGTNLGQVGVGSKISSINKDMVQGNVQPTNRPSDLMIDGDGYLPVVRQGTVMYTRDGSFNLDTGFKAADGALKNIKGGRLVNGDGYMLQGMIYDGEYKADTGEFVKKGDAKGKEPIVIPLQSISPKDGTVQNVLEYNISKDGTVEFLLSDGQRTQFVYDIPDGAKVGDTPAGIDKLKGTIQKVQIYAFQNPAGLDAAGGNLFKPSANSGDPQIAGATGTIIQGAIEASNVDIAEEFTEMIIASRSFQANSKIISTSDEILQEIINLKR	not soluble
MGSDKIHHHHHHMIKHIFCDLDGTLYENGTITKEDIVAIEEIEKKGVQFNVATGRIFKQAHNIIKDSLDMNGYYVCENGSFIYDKDYNVIFKRTIDDNLVKKVIDRFESSDAQLYFKYKGDVIVGSDTTAFRHYSSDFIVDPDFEKRSSFDNLIGNIGVCSENLEELSRIELYLKSEFSEVLEIYFSGTYTLNIVPKSVSKRGSIEHVIKTLNVSPDEVATIGDSPNDICMLEGFKYSFAMSKAREDVKQSANYVVDSVKSAIDVIMEINS	not soluble
MGSDKIHHHHHHMIKILLLIDYSSEFDRKLLRGLVQYSKENGPWLFYRLPSYYSGMYGEKGILKWAKEWKADAIIGQWNNDTVNLLKELNIPIVLQNYHHRSTTYSNLTGDYKGTGRMAAQFFAKRMFHNFAYFGINGVVWSDERCEGFRQEVKRIGGNFYCFESDKHEDEIRIEVSQWLQELPKPIALFCCDDSHALFISETCKISNIHIPEEISLLGVDNDDLICNISDPPISSIELEVERGGYSIGRLIHQQIKKEHEGTFNIVINPIRIELRQSTEKHNIKDPYILEVVKYIESHYNSDLTIESLLAQIPLSRRNFEVKFKNAMHTSIYQYILNCRVNHLADLLLTTDRSLADIATEAGFKDYNNISRIFKKFKGCSPLEYREKKITNR	not soluble
MGSDKIHHHHHHMIKRNAAKPVRVAPPMMEEQEVSTSTLQELLEKEETVSNLIFSKGREEGISKSYKSFKNCTFRNQTFSECKFRSSQLADIRFENCDLSNISFAESSLYRVEFIACKLLGTNLSETTMNHVLLHDCNASYINLAMSKMNQVRFSHCHFRNGSFNDCRFSSVAFDSCDLVEADFSHAPLRGIDLRTSRIGGITLNISDLKGAVITSLQAMDLLPLLGVIIED	not soluble
MGSDKIHHHHHHMIKVALLHFGFEDYTIELANSLSKYVDLTLINPKKLSDVCGDAFDPSIRVVSFKKPRIRDPRNLLSMNAMMRIIKDIQPDVLHVQETNDPWYDWTLLLNKMPPLVTTIHDVFRHPGDKVAVFGSEYTRRIAFYRSQQLIVHTHQLKKILIEQFNLPEGRVNVIPHGELGSLYQHRGDRSNQPRDPNTLLFFGRIWPYKGLKYLLEAMPLIAECVPEVKLIIAGRGENIKEYFPNGYDENRYEIINRLIPLEEVSNLFQRSTVTVLPYIEASQSGVAALSYGMGTLVVASDVGGLSEIVQHKKDGLLVPPRDVRALADAIICLLSDRDLQQKMQTAALARCQQDLNWSNIAAQTVEVYQKTMKPIHQ	not soluble
MGSDKIHHHHHHMILFAGDPHGSYSHLYPFIQEHANVSLIILGDLQLTTSDELDKLAQFCDLWFIHGNHDSKTVSAYEALWGTKWKSRNLHGKVVDIQGIKIAGLGGVFRGQIWMPPNKPLFFDHIHYCQYAPPEKIWRGGIPLRHRTSIFPSDIEALEKQKADILICHEAPKPHPLGFSVINNLATSMQVKHIFHGHHHESFDYTKRPNKNPFKITNVGFRSLCNINGNFLLIGIDDRE	not soluble
MGSDKIHHHHHHMILMNNPGDKEVLRLLKQRMESVSQVEETVKEIIRRVKEEGDRALEEFLKRFEKHPVGIENLRVTEKEISEAQVEEEFVETIKIVIEDLKEFHRRQEERSFFFTTKGGSFLGEMVVPLESVGIYVPGGKVPYFSTLLMCAVPAIVAGVERIAVTTPPNENGGISPYILKTCEILGLKEIYRMGGAHAVAALTYGTETVKPVDKIVGPGGVFVTLAKKHVYGDVGIDSIAGPSEIAIVTDGSADLDLIAADFLSQAEHDENAMSVVITTSKEVFEKLPQVIERHLEALPEERRKTARISTENFGTIILTDSLKRAFEISNLIAPEHLEVLVENPFEPLGHIKNAGSVFLGKYTCESVGDYGAGPNHVLPTFRSARFSSGLRVSDFTKKIFITHLSEEDFRRKSELYSKMARWEGFEAHARAIDVRREKL	not soluble
MGSDKIHHHHHHMILTKEKSLNAGPIYGTGEGVAHSKRWYVALVRMHHEKKVSEYLNKVGIENFVPVQKEIHQWSDRRKLVESVLLPMMVFVHADPKERMEVLNFTTVSRYMVMRGESSPAVIPDDQMARFRFMLDYSDETVCMNSSPLARGEKVQVIKGPLQGLVGELVNVDGKSKIAVRLNMLGCACVDMPIGYVEPIGEKN	not soluble
MGSDKIHHHHHHMINAKNIRFSYPRQRSLFESLNLDLPKGSITGLLGRNGEGKTTLLKLLCGQLLRKDGNLTVLTEDPRHRSVKFLSKVFLLQEEVTCPNVSIRDYFRMITPFYPSYSPEVAQEIIIAFDLNWDMKLGKVSQGQKKKAVIALALSLRTPLLLMDEPTNGLDIPSKSAFRRLMARYITEEQTVIISTHQVRDLEQIIDRIVMMDKNAIVCNRSVAELSEQFAFRQVVPGDKPIYKEGSTMGEVGVYENTTGEETPFSMELFFNGMIAEREVFNRVLNR	not soluble
MGSDKIHHHHHHMINREIAVKVQHVSKTFKLPTEATKSFRTTLVNRLRGIKGFTEQHVLKDINFDVYKGDFFGIVGRNGSGKSTLLKIISQIYVPEKGQVTVDGKMVSFIELGVGFNPELTGRENVYMNGAMLGFTKDEVDDMYNDIVDFAELHHFMNQKLKNYSSGMQVRLAFSVAIKAQGDVLILDEVLAVGDEAFQRKCNDYFMERKDSGKTTILVTHDMGAVKKYCNRAVLIEDGLVKAYGEPFDVANQYSVDNTETAEDAMNAEKISVSDIAKDLKVSLISNPRITPNDTITFEVSYEVLKDDFTYIAFSLTDIDRNIWVYNDNSLDYPTQGIGRKCISYQCQLSQLNDIKLKLEVTVRDKNGQMLLFSTAEQSPQIVIQRNDIDQDDLSALDSASGLYQRNGKWVFH	not soluble
MGSDKIHHHHHHMINTALRLAAPEIEAFLQGRIIAAMPNKFITPGREFALCPSDASINLLPVEQYYRSSFLPIAQSAFAQLNIQGVLIQPQQMNLLIDEEQLKLPILAYETVLIKTWAKCELCQIINNTESFAALSQLTIWTTEALKEILRQKQNIFLAYLRVYELPKSIEVPIKSNSQFVALSQPLNVSEDKPVLKDRTFAQRKHQLEKLQPPLHPELEELQSAIASLSISQPAAKQLDDDIKVFLGWSSDKLTNPLDSDLPWIQNIAKVGNSSDGHTFEKLVRRGLLKLGFTGSGLNPDATGGAGGMDFYAEQPYPIVGECKATKTEKVTDGTPAQLLKIGMNHLGKFQYDNSIKLIVAAGELNFYALRTATENQMNIVSPETLQKLVELQAHYKNSINLLDLSGNKRE	not soluble
MGSDKIHHHHHHMINYMIPKGFLCCGKHVGIKKRKLDLGVVYSEKLCSAAAVFTKNKFCGIPIIVGKENIKDNKLQSIVVTSGVANVATGEEGLKNTYRILNKLSCELNIKSENILPSSTGIIGKQLPIDCIITGINGIKSSLSKYNWEEFNRAIMTTDKELKIKSCKIGDATVLGIAKGSGMIEPNMATMLAYFFTDASIKAVELKGILKRAVDKSFNMISIDHDTSTSDTAAILANGYVGNVNLEVFEKTFTDMCIDMAKDIVRDGEGVSKLIEATVMGCSSFESAKVIAKSIINSPLVKIAIYGSDPNWGRIAMAIGKSFEDDVDPLKIEIAFNSNVIYDKGKIYEENFDCIERYLRDNNECKIQANLNVGDFAATVWGSDFTEDYIRINSYYTKRK	not soluble
